Measured values: article PMC9463231 (2022)

Tests used:
Assay in all cases: SPR
biotinylated mouse FcγRI = target: T1, biotinylated mouse FcγRI (mouse, UniProt P26151 25-297, biotin)
T1 chain: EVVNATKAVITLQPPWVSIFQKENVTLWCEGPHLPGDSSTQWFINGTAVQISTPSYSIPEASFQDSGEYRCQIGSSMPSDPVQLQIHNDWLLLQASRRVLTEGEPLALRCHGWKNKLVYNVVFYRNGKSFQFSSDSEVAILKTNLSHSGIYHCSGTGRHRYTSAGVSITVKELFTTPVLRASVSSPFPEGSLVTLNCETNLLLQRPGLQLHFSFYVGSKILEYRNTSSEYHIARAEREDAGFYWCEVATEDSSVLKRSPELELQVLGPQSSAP

[1] = target: T2, biotinylated mouse FcγRIV (mouse, UniProt A0A0B4J1G0 21-203, biotin)
T2 chain: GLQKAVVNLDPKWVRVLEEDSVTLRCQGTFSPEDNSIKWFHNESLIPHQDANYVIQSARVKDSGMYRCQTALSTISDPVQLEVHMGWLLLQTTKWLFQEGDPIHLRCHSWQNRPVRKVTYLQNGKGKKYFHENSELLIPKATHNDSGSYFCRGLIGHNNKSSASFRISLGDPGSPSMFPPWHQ

His-tagged mouse FcγRIII = target: T3, His-tagged mouse FcγRIII (mouse, UniProt P08508 31-261)
T3 chain: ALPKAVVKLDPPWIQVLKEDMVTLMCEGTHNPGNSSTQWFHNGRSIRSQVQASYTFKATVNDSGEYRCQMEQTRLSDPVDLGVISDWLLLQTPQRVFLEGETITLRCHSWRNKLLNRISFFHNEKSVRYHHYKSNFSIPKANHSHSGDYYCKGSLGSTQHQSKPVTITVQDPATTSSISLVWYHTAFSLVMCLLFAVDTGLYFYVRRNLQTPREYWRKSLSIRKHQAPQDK

Kd (biotinylated mouse FcγRI): 85.8 nM
Kd [1]: 388 nM
Kd (His-tagged mouse FcγRIII): 3690 nM
B1: Ipilimumab mIgG2a wildtype (anti-human CTLA-4 mIgG2a with an intact Fc domain) (antibody)
chain 1: QVQLVESGGGVVQPGRSLRLSCAASGFTFSSYTMHWVRQAPGKGLEWVTFISYDGNNKYYADSVKGRFTISRDNSKNTLYLQMNSLRAEDTAIYYCARTGWLGPFDYWGQGTLVTVSS
chain 2: not shown
